In data set [1] the target is T1, PP2A catalytic Cα-subunit (free PP2Ac) ( ("mammalian PP2Ac"), UniProt P67775 1-309).
T1 construct: PP2A Cα-subunit (PP2Ac); negligible methylation as purified; also called C-subunit; full-length PP2Ac
In words: pull-down; core enzymes assembled on the maltose resin with the immobilized MBP-tagged truncated A-subunits. To be noted: both partners purified.

Data set [2] concerns the molecule itself. In words: SEC; gel filtration chromatography of wild type and mutant A-subunits.
In data set [3] the target is T2, PP2A scaffold Aα-subunit (full-length A-subunit) (UniProt P30153 1-589).
T2 construct: PP2A scaffold Aα-subunit, 15 HEAT repeats; called the full-length A-subunit; the methods say that residues 9–54 were retained in all constructs, and the FRET fusion is Aα (9–589); The true N-terminal limit may be residue 9; also called scaffold subunit
In words: assembly and purification of the core enzyme; stable PP2A core enzyme assembled from A-subunit and PP2Ac and purified as previously described [17]. The settings on record: both partners purified.

The target of data set [4] is PP2A core enzyme with the A-subunit mutant A_R258E ( |  ("mammalian …, UniProt P30153 1-589; P67775 1-309, A_R258E). Briefly: cell-based or functional assay.
The target in data set [5] is PP2A core enzyme with the A-subunit mutant A_R183E ( |  ("mammalian …, UniProt P30153 1-589; P67775 1-309, A_R183E). In words: cell-based or functional assay.
Data set [6] has as its target T1, PP2A catalytic Cα-subunit (free PP2Ac). In words: ITC; 200 µM LCMT-1 (pre-loaded with SAH) titrated to 20 µM PP2A; 25°C; 20 mM Tris pH 7.5, 50 mM NaCl, 50 µM MnCl2; VP-ITC. The settings on record: both partners purified.

Where only a bound is given, the exact number is not on record here.

B1: A-subunit mutant missing HEAT repeats 2–10 (AΔHR2–10, mini-A) (domain or fragment, UniProt P30153 9-589, looked up)
chain: SLYPIAVLIDELRNEDVQLRLNSIKKLSTIALALGVERTRSELLPFIVELAEDAKWRVRLAIIEYMPLLAGQLGVEYFDEKLNSLCMAWLVDHVYAIREAATSNLKKLVEKFGKEWAHATIIPKVLAMSGDPNYLHRMTTLFCINVLSEVCGQDITTKHMLPTVLRMAGDPVANVRFNVAKSLQKIGPILDNSTLQSEVKPILEKLTQDQDVDVKYFAQEALTVLSLA
notes: the FRET fusion is Aα (9–589); source: E. coli DH5α, MBP-tagged, immobilised on maltose resin
For B1, the binding result in data set [1] is reported as “binds”.

B2: A-subunit mutant A_D61A/E62K/E100A/E101K (natural protein, UniProt P30153 1-589, looked up)
chain: MAAADGDDSLYPIAVLIDELRNEDVQLRLNSIKKLSTIALALGVERTRSELLPFLTDTIYAKDEVLLALAEQLGTFTTLVGGPEYVHCLLPPLESLATVAKTVVRDKAVESLRAISHEHSPSDLEAHFVPLVKRLAGGDWFTSRTSACGLFSVCYPRVSSAVKAELRQYFRNLCSDDTPMVRRAAASKLGEFAKVLELDNVKSEIIPMFSNLASDEQDSVRLLAVEACVNIAQLLPQEDLEALVMPTLRQAAEDKSWRVRYMVADKFTELQKAVGPEITKTDLVPAFQNLMKDCEAEVRAAASHKVKEFCENLSADCRENVIMSQILPCIKELVSDANQHVKSALASVIMGLSPILGKDNTIEHLLPLFLAQLKDECPEVRLNIISNLDCVNEVIGIRQLSQSLLPAIVELAEDAKWRVRLAIIEYMPLLAGQLGVEFFDEKLNSLCMAWLVDHVYAIREAATSNLKKLVEKFGKEWAHATIIPKVLAMSGDPNYLHRMTTLFCINVLSEVCGQDITTKHMLPTVLRMAGDPVANVRFNVAKSLQKIGPILDNSTLQSEVKPILEKLTQDQDVDVKYFAQEALTVLSLA
notes: PP2A scaffold Aα-subunit, multiple mutant D61A/E62K/E100A/E101K; Probably made as the wild-type A-subunit
For the molecule B2, the binding result in data set [2] was “binds”.

B3: PP2Ac with internal deletion of five residues of the PP2Ac-tail (PP2AcΔ294–298) (enzyme, UniProt P67775 1-309, looked up)
chain: MDEKVFTKELDQWIEQLNECKQLSESQVKSLCEKAKEILTKESNVQEVRCPVTVCGDVHGQFHDLMELFRIGGKSPDTNYLFMGDYVDRGYYSVETVTLLVALKVRYRERITILRGNHESRQITQVYGFYDECLRKYGNANVWKYFTDLFDYLPLTALVDGQIFCLHGGLSPSIDTLDHIRALDRLQEVPHEGPMCDLLWSDPDDRGGWGISPRGAGYTFGQDISETFNHANGLTLVSRAHQLVMEGYNWCHDRNVVTIFSAPNYCYRCGNQAAIMELDDTLKYSFLQFDPAPHVTRRTPDYFL
notes: Probably made as the wild-type Cα-subunit (insect cells, His8 tag cleaved); also called shortened PP2Ac
Take B3: the binding result in data set [3] was “binds”.

B4: A-subunit mutant missing HEAT repeats 2–8 (AΔHR2–8) (domain or fragment, UniProt P30153 9-589, looked up)
chain: SLYPIAVLIDELRNEDVQLRLNSIKKLSTIALALGVERTRSELLPFIKELVSDANQHVKSALASVIMGLSPILGKDNTIEHLLPLFLAQLKDECPEVRLNIISNLDCVNEVIGIRQLSQSLLPAIVELAEDAKWRVRLAIIEYMPLLAGQLGVEFFDEKLNSLCMAWLVDHVYAIREAATSNLKKLVEKFGKEWAHATIIPKVLAMSGDPNYLHRMTTLFCINVLSEVCGQDITTKHMLPTVLRMAGDPVANVRFNVAKSLQKIGPILDNSTLQSEVKPILEKLTQDQDVDVKYFAQEALTVLSLA
notes: as for B1
For the molecule B4, in data set [1], the binding result is “binds”.

B5: PP2A-specific leucine carboxyl methyltransferase 1 (LCMT-1) (enzyme, human, UniProt Q9UIC8 1-334, looked up)
chain: MATRQRESSITSCCSTSSCDADDEGVRGTCEDASLCKRFAVSIGYWHDPYIQHFVRLSKERKAPEINRGYFARVHGVSQLIKAFLRKTECHCQIVNLGAGMDTTFWRLKDEDLLPSKYFEVDFPMIVTRKLHSIKCKPPLSSPILELHSEDTLQMDGHILDSKRYAVIGADLRDLSELEEKLKKCNMNTQLPTLLIAECVLVYMTPEQSANLLKWAANSFERAMFINYEQVNMGDRFGQIMIENLRRRQCDLAGVETCKSLESQKERLLSNGWETASAVDMMELYNRLPRAEVSRIESLEFLDEMELLEQLMRHYCLCWATKGGNELGLKEITY
notes: human LCMT-1, cloned into pET15b; For ITC it was pre-loaded with SAH (0.5 mM, 10 min, 37°C)
Broadly, the stoichiometry N is the number of molecules, sites or subunits per partner or assembly. On to B5, for which the “Km of methylation of the PP2A core enzyme by LCMT-1 (3H-SAM), fold increase against the wild-type core enzyme” value in data set [4] is 2 fold. The “Km of methylation of the PP2A core enzyme by LCMT-1 (3H-SAM), fold increase against the wild-type core enzyme” value in data set [5] is 1.5 fold. Further, in data set [6], the “fold reduction of binding affinity against the core enzyme” value is around 4 fold and the “stoichiometry N” value was below 1.

For the origin of these results see PMC3900686, “Mechanisms of the Scaffold Subunit in Facilitating Protein Phosphatase 2A Methylation” (PLoS ONE, 2014).
